From the supplement of paper PMC12455559
± gives the standard deviation of the averaged measurements.

Assays:
[1] = PET hydrolysis, aromatic products released after 48 h (umol product/mg enzyme); higher = more PET depolymerization activity
Summary of the method: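 Reactions ran in sealed plates without shaking for 48 h at 40 or 60 °C. Each held 3.5 mg amorphous PET film or crystalline PET powder, 450 μL buffer and 5 μg (50 μL) of tagless, SUMO-cleaved, nickel-purified candidate enzyme. Buffers were 50 mM NaCitrate at pH 4.5 or 5.5, 50 mM NaPhosphate at pH 6.5 or 7.5, and glycine at pH 8.5. The supernatant's aromatic product, read at 260 and 280 nm against buffer blanks, gives PET hydrolysis activity per mg enzyme.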

[2] = purified protein yield per well (BCA); higher = higher soluble expression
Summary of the method: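 Candidate enzymes were made in 2 mL autoinduction cultures of E. coli C41(DE3) with 100 µg/mL kanamycin, at 37 °C for 2 h and then 18 °C for 40 h, and purified with Ni-charged magnetic beads and SUMO protease cleavage. The Pierce Rapid Gold BCA kit gave purified protein yield per well. Values lower than 25 ug (0.1 mg/mL) are below the detection threshold.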

[3] = melting temperature (DSF); higher = more thermostable
Summary of the method: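 After expression in E. coli C41(DE3), the candidate enzymes were bound to nickel beads and released with SUMO protease. Their melting temperature was found by differential scanning fluorimetry with Sypro Orange on a Bio-Rad CFX96. Each sealed PCR plate well held 45 μL enzyme (0 to 0.3 mg/mL) plus 5 μL 5X dye, and fluorescence was read for 250 cycles from 25 °C at 0.3 °C per cycle (ramp 0.3 °C/s).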

[4] = substrate: cryPow, 40 °C, pH 4.5
[5] = substrate: cryPow, 40 °C, pH 5.5
[6] = substrate: cryPow, 40 °C, pH 6.5
[7] = substrate: cryPow, 40 °C, pH 7.5
[8] = substrate: cryPow, 60 °C, pH 4.5
[9] = substrate: cryPow, 60 °C, pH 5.5
[10] = substrate: cryPow, 60 °C, pH 6.5
[11] = substrate: cryPow, 60 °C, pH 7.5
[12] = substrate: aFilm, 40 °C, pH 4.5
[13] = substrate: aFilm, 40 °C, pH 5.5
[14] = substrate: aFilm, 40 °C, pH 6.5
[15] = substrate: aFilm, 40 °C, pH 7.5
[16] = substrate: aFilm, 60 °C, pH 4.5
[17] = substrate: aFilm, 60 °C, pH 5.5
[18] = substrate: aFilm, 60 °C, pH 6.5
[19] = substrate: aFilm, 60 °C, pH 7.5
[20] = substrate: cryPow, 40 °C, pH 8.5

| Sequence | PET hydrolysis [1, 4] | PET hydrolysis [1, 5] | PET hydrolysis [1, 6] | PET hydrolysis [1, 7] | PET hydrolysis [1, 8] | PET hydrolysis [1, 9] | PET hydrolysis [1, 10] | PET hydrolysis [1, 11] | purified protein yield per well [2] | melting temperature [3] | PET hydrolysis [1, 12] | PET hydrolysis [1, 13] | PET hydrolysis [1, 14] | PET hydrolysis [1, 15] | PET hydrolysis [1, 16] | PET hydrolysis [1, 17] | PET hydrolysis [1, 18] | PET hydrolysis [1, 19] | PET hydrolysis [1, 20] | PET hydrolysis ([1]; substrate: aFilm, 40 °C, pH 8.5) | PET hydrolysis ([1]; substrate: aFilm, 60 °C, pH 8.5) | PET hydrolysis ([1]; substrate: cryPow, 60 °C, pH 8.5) |
| --- | --- | --- | --- | --- | --- | --- | --- | --- | --- | --- | --- | --- | --- | --- | --- | --- | --- | --- | --- | --- | --- | --- |
| ADNPYQRGPDPTLASVSAQRGTFATAQVAVPAGDGFGGGMIYYPTDTSQGTFGAVAIVPGYTARFSVEEAWMGHWLASFGFVVIGVETNSTNDFDTARGTQLLAALDYLTQRSSVRDRVDASRQSVVGHSMGGGGALYAAGQRASLKAAVGLAPYKPSGNPTNVRVPTMIISGQNDTVVTPSYATGLYNTLPATTESAYMEFTGADHLFPTRANTLEMRILIPWLKIFVDSDNRYSQFLCPLQDSTGIRGYRSTCPFLPNPTTSPSTTAPTTPPTTPPTTPPTGACSATYRTVNSWPGGFQGEVTVSAGSTPVDGWAVRWTLASGQAVTQVWNGALSVSGSAVTVRNTTYNGSLGANASTTFGFLASGSPTPVSLTCTSP [ESM033] | 9 | 25 | 35 | 6 | < 3 | < 3 | < 3 | < 3 | 594 µg | 53.8 C |  |  |  |  |  |  |  |  |  |  |  |  |
| ASPYERGPNPTAASVSATTGPFAIASVSVARGNGFGGGVIYYPTATNQGTFGGIAISPGLNGTWAGIAWLGPRLASQGFVVFGIETNNLNDSPTSRGTQLLAALDYLTQRSTVRTRVDAGRLAVMGHSMGGGGALDAALRRPSLQAAIGNAPHLPSGTLSNDRVPTMIYAMQNDTLVPPSRLTTLYNSIPATTERGYILVTGAGHNYIGQPSTTLARTMIPWFKIFIDDDTRYSQFLCPMSNQSGISQYRNSCPLS [ESM160] | < 3 | 13.5 ± 2.1 | 43.5 ± 3.5 | 66.5 ± 0.71 | < 3 | < 3 | 7.5 ± 0.71 | 14 ± 1.4 | 400 µg | 55.6 C | < 3 | < 3 | < 3 | < 3 | < 3 | < 3 | < 3 | < 3 |  |  |  |  |
| ADNPYQRGPDPTAESVRASRGTFATTQVTVPAGNGFGGGVIYHPTDTSQGTFGAVAIVPGYTATWAAEGAWMGHWLASFGFVVIGVDTINRNDWDTARGTQLLAALDYLTQQSPVRNRVDASRAAVMGHSMGGGGAMSAALRRPSLKAAVGLAPFSPSQNLTNTRVPTMLIAGQNDGTTTPASISTLYNGIPASTESAYLEFAGAGHGFPTSNNPLMMRVVIPWLKIFVDNDTRYSQFLCPLTDRTGITQYRSTCPLTPPGAPTSPPTTTAPPTPTTSPSVTPSTSPSATPTTPAPDGACRATYRTTNSWPGGYQAEVTVTAGNSPINGWTVRWTLGSGQSISQVWNGTLTTSGSAVTVRNVSYNGSLQPGTSTTFGFIGGGTPSTPVLACVSP [ESM018] | < 3 | 3 | 11 ± 1.4 | 30 ± 1.4 | < 3 | < 3 | 7 ± 9.9 | < 3 | 530 µg | 61.3 C | < 3 | < 3 | < 3 | < 3 | < 3 | < 3 | < 3 | < 3 |  |  |  |  |
| ADNPYQRGPDPTPASIAADHGPFATAQTTIPKGNGLGGGIVYYPTDTSQGTFGAIAIAPGYGTEWRWYGWLGPRLASFGFVVVGIETNSLSDYADARADQLLAALDWLVTSSPVRDRVDRTRLAVGGHSMGGGGALVAATRRPSLRSAVGMAPYVPDGILRGTSVPTILFGGQADTTVTPAYLASAYATIPATVPRAYPEIAGEGHGFAAGGGGGNSGAFARVMMVWLKVFVDADTRYPPFLCPTLSNTSGISKYQASCPLGPGGTIPPPDTSRLANANAGRCLDASGAGTANGTKVILWTCNHGANQQWNRT [ESM139] | < 3 | < 3 | 1.5 ± 2.1 | 3.5 ± 0.71 | < 3 | < 3 | < 3 | < 3 | 305 µg | 65.5 C | < 3 | < 3 | < 3 | < 3 | < 3 | < 3 | < 3 | < 3 |  |  |  |  |
| AGNPYQRGPDPTLASVAASRGTFATAQVSVPAGNGFNGGTIYYPTDSSQGTWGAVAIVPGYTALFANEEAWMGPWLASFGFVVIGIETNSRTDFDTARGTQLLAALDYLTQKSPVRDRVDSARLGVIGHSMGGGGVVYATEHRPSLKAAVALAPFSPSQDMSTDHVPTMVMGGQNDTVVTPSYLDGLYATMPASTQSDFVQLAGADHVAYTHPNTTEMRLLIPWLKIFLDDDTRYTQFLCPLMDSTGVSAYHSKCPYVPPGGSTSTPTPTPTITPTPPPSGACSATYRTVNSWSGGYQGEVTVTAGDAAINGWTVRWNLGGGQTVTQVWNGTLSTSGSTATVTNASYNGSLQASASTTFGFLANGTPSTPAITCTSP [TEP114] | 7 | 12.5 ± 0.71 | 24.5 ± 3.5 | < 3 | 6 ± 1.4 | 9 ± 1.4 | 1.5 ± 2.1 | < 3 | 407 µg | 41.8 C | < 3 | < 3 | < 3 | < 3 | < 3 | < 3 | < 3 | < 3 |  |  |  |  |
| ADNPYQRGPDPTLASVSATRGTFATAQVSVPAGNGFASGVIYYPTDTSQGTFGGVAIVPGYSALFANEEAWMGPWLASFGFVVIGIETNSRTDSADARGTQLLAALDYLTQRSAVRDRVDPNRLSVIGHSAGGAGVLSALLRRPTLKAAVGLAPGSPVGDYSLYNDRVPTMFISGERDTTVTRSYLNGLYTTIPASTPSAWVEITGVDHLFATRANTTEMRVLIPWLKIFLDNDTRYTQFLCPQLADPGNVSMYRNKCPYVPPGGSSPSASPSTSPSASPSTSPSASPSVSPSPSPSPSPSASPSTSRACTASYRTVNSWSGGFQGEVTVTAGTSAINGWTVGWTLSGGQTINQLWNGTLSANGSAVRVTNVSYNGSIPASGSSTFGFLGTGTPSNPTLTCTSP [ESM040] | < 3 | < 3 | < 3 | < 3 | < 3 | < 3 | < 3 | < 3 | 526 µg | 59.8 C |  |  |  |  |  |  |  |  |  |  |  |  |
| QTNPYQKGPAPTVANLEAARGSFAVSSTSISSLSATGFGGGSLHYPTAAGTYGLIAVAPPYLAQSSSIAWLGPRLASHGFVVVMIDVNSTLDFPESRSRQQLAAIDYAIAQNARRTSPIYGKVDTTRRGVTGHSMGGGASILTARNSPANIKGAFPLTPWSSDKNFSNLQVPTGYLACQDDTVAGNADHSLNFYNRMPASTPKGYYELRGETHFCPQSTTNNPVIGKYLVAWMKRFVDNDTRFSPFLSGALPNADLSSGRFSVLRTSGL [DP075] |  | < 3 | < 3 | < 3 |  |  |  |  | 33 µg | 49.3 C |  |  |  |  |  |  |  |  | < 3 |  |  |  |
| EEPASGYQRGPAPTTSSIESSRGPFSTSQVSISGLSANGFGGADVYYPTDTSQGTFGAVAISPGYTARKSSMAWLASRLASQGFVVINIDTNTTSDQPASRGRQLLAALDQVTKDSRVANRIDPTRLAVVGHSMGGGGALEASRSRPSLQAAIPLTPWNTTKSFSGNQVPTLVVGAERDTVASVRSHAEPFYRSLPSAPGKAYLELAGASHFAPNTSNTTIAKHSIAWLKLFVDNDERYRQFVCPGPTSDRAVSDYQNTCSSFTP [DP053] |  | < 3 | < 3 | < 3 |  | < 3 | < 3 | < 3 | 235 µg | 42.7 C |  | < 3 | < 3 | < 3 |  | < 3 | < 3 | < 3 | < 3 | < 3 | < 3 | < 3 |
| MLGALAIVGGTRPATGADNPYQRGPDPTPASVSAGRGTFATAQVSVGAGNGFGGGVIYYPTDTSQGTFGAIAVVPGYTATWAAEGAWMGHWLASYGFVVIGIDTNTRNDWDTARGTQLLAALDYLTQRSSVRDRVDATRTAVMGHSMGGGGAAYASLQRPSLKTSVGLAPFSPSQNLTTTRVPTMLLSGQNDGTVTPSSVQNLYNGIPAGVEKAYLELTGAGHGFPTSNNPTMMRTVIPWFKIFVDSDTRYTQFLCPLADSNGIRTYQSTCPLVPSTPPTTTTTPTSTTTTSTTSTTPTTTTTTPQPGGACSATYRTVNSWSGGYQGEVTVTAGTSAVTGWTVRWSLGSGQTISQVWNGTLTVDGPTASVRNVSYNGSLGANASTTFGFIGGGTPPTSTLSCTSP [ESM006] | < 3 | 6.5 ± 0.71 | 13 ± 1.4 | 17.5 ± 6.4 | < 3 | < 3 | < 3 | < 3 | 577 µg | 63.1 C | < 3 | < 3 | < 3 | < 3 | < 3 | < 3 | < 3 | < 3 |  |  |  |  |
| AENPHQRGPNPTVAALEAAAGPFAVAKVSVPGGHGFGGGTITYPTDTSQGTFGAVAVSPGFIESEGAIAWFGPRLASHGFVVITISTNGLFDQPDARGAQLLAALDYVTKSSAVRDRVDPARLAVMGHSMGGGGALYATAQRPALKASIPLLAWSNTKSWGSVRVPTMVIGAENDFIASVGSHSEPFYQSLGGEKAYLEMNDADHFVTNSPTPTVGKLTVSWLKRFMDNDTRYDQFLCPAPPVGGPISEYRDTCPYI [DP017] |  | 4 | 11 | 13 |  |  |  |  | 30 µg | 49.6 C |  |  |  |  |  |  |  |  | 6 |  |  |  |
| MPPPDSGAAAHERVHAEPSDPATVGSAGGNPFARGPDPTLASVAAEFGPFATTQLSVPPGHGFNGGYVYYPTDASPTFGAVAIVPGYTALFADEEAWMGPRLASFGFVVIGIETNSREDWDRARGAQLLAALDYVTQHSTVRTRVDSSRLAVIGHSMGGGGAFAAATRRPSLKAVVGLAPYFPSGDLATVRVPTLIIGGQRDTTVTPSYLDDLYATLPTRTPSAYLMLADADHLFPTRPNPVEMRLLIPWLKIFVDRDTRYVRFLCPLADRSGIAQYRVTCPLVPPA [TEP003] | < 3 | < 3 | < 3 | < 3 | < 3 | < 3 | < 3 | < 3 | 152 µg | 67.6 C |  |  |  |  |  |  |  |  |  |  |  |  |
